Patent US20250043302A1, “MUTATED HYDROXYPHENYLPYRUVATE DIOXYGENASE POLYPEPTIDE, AND CODING GENE AND USE THEREOF” (BEIJING DABEINONG BIOTECHNOLOGY CO., LTD., priority 2021, published 2025)

Legend:
Assay type in all cases: in vivo
[1] = system: Arabidopsis thaliana T1 plants; test: Topramezone tolerance of transgenic Arabidopsis thaliana T1 plants (spray, bleached leaf area grade, damage score); conditions: 7 DAT, Table 4; for Classification and statistics of the grade of pesticide damage: Grade 0 / Classification and statistics of the grade of pesticide damage: Grade 1 / Classification and statistics of the grade of pesticide damage: Grade 2 / Classification and statistics of the grade of pesticide damage: Grade 3: number of plants; for Scores: pesticide damage score 0-100
How it was run: (§1)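 T1 transformants selected by glufosinate; 18-day-old plants, with empty-vector and wild-type controls, sprayed with topramezone (25–200 g ai/ha), isoxaflutole (35–280 g ai/ha) or mesotrione (52.5–420 g ai/ha), water as 0×. Bleached leaf area fraction scored at 7 DAT as grades 0–3.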

[2] = system: Arabidopsis thaliana T1 plants; test: Mesotrione tolerance of transgenic Arabidopsis thaliana T1 plants (spray, bleached leaf area grade, damage score); design: Scores: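 damage score 0-100 computed as Σ(N×S)/(T×M)×100 over grades 0-3 with higher meaning more damage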; conditions: Arabidopsis thaliana T1 plants; for Grade 0 (classification and statistics of the grade of pesticide damage; number of plants) / Grade 1 (classification and statistics of the grade of pesticide damage; number of plants) / Grade 2 (classification and statistics of the grade of pesticide damage; number of plants) / Grade 3 (classification and statistics of the grade of pesticide damage; number of plants): 16 plants
How it was run: as §1

soybean T1 plants [3] = test: Mesotrione tolerance of transgenic soybean T1 plants; conditions: different concentrations
[4] = system: Arabidopsis thaliana T1 plants; test: Isoxaflutole tolerance of transgenic Arabidopsis thaliana T1 plants (spray, bleached leaf area grade, damage score); design: Scores (pesticide damage): scale not given here; conditions: spray, Arabidopsis thaliana T1 plants; for Classification and statistics of the grade of pesticide damage: Grade 0 (number of plants) / Classification and statistics of the grade of pesticide damage: Grade 1 (number of plants) / Classification and statistics of the grade of pesticide damage: Grade 2 (number of plants) / Classification and statistics of the grade of pesticide damage: Grade 3 (number of plants): 16 plants
How it was run: as §1

soybean T1 plants [5] = test: Topramezone tolerance of transgenic soybean T1 plants; conditions: different concentrations
Procedure: T1 transformants were initially selected from the untransformed seeds using a glufosinate selection scheme. […] The degree of damage caused by the herbicide was measured for each plant according to the proportion of bleached leaf area (the proportion of bleached leaf area=bleached leaf area/total leaf area×100%) 7 days after spraying (7 DAT): the case where there is basically no bleached phenotype is defined as grade 0, the case where the proportion of bleached leaf area is less than 50% is defined as grade 1, the case where the proportion of bleached leaf area is more than 50% is defined as grade 2, and the case where the proportion of bleached leaf area is 100% grade is defined as grade 3.
The soybean T1 plants into which the SbHPPD-02 nucleotide sequence was introduced, soybean T1 plants into which the SbHPPDm-F372A-02 nucleotide sequence was introduced, soybean T1 plants into which the SbHPPDm-F383W-02 nucleotide sequence was introduced, soybean T1 plants into which the SbHPPDm-F372A-F383W-02 nucleotide sequence was introduced, soybean T1 plants into which the control vector DBN11726N nucleotide sequence was introduced, and wild-type soybean plants (V3-V4 at seedling stage) were sprayed with topramezone at three different concentrations (i.e., 25 g ai/ha (one-fold field concentration, 1×). […] According to the method in point 6 of Example 1, after 7 days of spraying (7 DAT), the damage degree of each plant by the herbicide was statistically analyzed, and the scoring and resistance evaluation were carried out accordingly. […]

soybean T1 plants [6] = test: Isoxaflutole tolerance of transgenic soybean T1 plants; conditions: different concentrations
[7] = isoxaflutole 35 g ai/ha (0.5x field concentration)
[8] = isoxaflutole 70 g ai/ha (1x field concentration)

B1: SbHPPDm-F383W-02: nucleotide sequence encoding Sorghum bicolor HPPD with F383W; vector DBN11760 (nucleic acid)
DNA: ATGCCGCCCACTCCAACAACTGCTGCTGCGACGGGAGCAGCTGTCGCCGCTGCTTCTGCTGAGCAGGCTGCCTTCAGGCTCGTCGGGCACAGAAATTTTGTTCGTGTAAATCCAAGGAGTGATAGGTTCCACACCTTGGCTTTTCACCACGTGGAGTTGTGGTGTGCTGATGCAGCCTCGGCAGCGGGGCGCTTCTCGTTTGGTCTCGGTGCTCCGCTCGCCGCAAGATCTGATCTTAGCACTGGAAACACAGCGCATGCCTCCCTGCTCCTGCGCTCTGGCGCGCTGGCGTTCCTCTTCACGGCGCCATATGCTCACGGCGCCGACGCCGCCACCGCGTCATTGCCGTCTTTTAGTGCAGCCGAAGCAAGAAGATTTGCAGCAGACCACGGCCTCGCCGTAAGGGCCGTGGCCTTACGTGTCGCCGATGCCGAAGATGCTTTCCGCGCCTCTGTAGCAGCTGGAGCAAGGCCAGCATTTGAACCTGTTGAATTGGGGTTAGGATTCCGTCTTGCAGAAGTTGAGCTTTATGGCGACGTTGTTTTGAGATACGTTTCATATCCTGATGACGCTGACGCTAGCTTCTTGCCTGGTTTTGTGGGGGTGACATCACCTGGGGCAGCAGATTATGGTCTCAGGCGGTTTGATCATATTGTTGGAAACGTTCCTGAACTCGCGCCGGCGGCAGCCTACTTCGCCGGTTTCACTGGGTTTCATGAATTTGCTGAATTCACAGCCGAGGATGTCGGCACCACCGAGAGTGGACTGAACTCCATGGTGCTGGCCAACAATGCAGAGAATGTCCTTCTTCCCTTGAATGAACCAGTTCATGGAACAAAAAGGCGTTCCCAAATACAAACATACCTCGACCATCATGGTGGACCAGGCGTTCAGCATATGGCTCTCGCTAGTGACGATGTTCTACGAACCCTGCGAGAGATGCAGGCGCGGTCTGCAATGGGAGGATTTGAGTTCATGGCACCTCCTGCCCCTGAATATTATGATGGTGTTCGGAGAAGGGCAGGTGATGTGCTAACTGAAGCTCAAATCAAGGAGTGCCAGGAGCTTGGCGTGCTGGTCGATCGGGATGATCAAGGTGTGCTTCTGCAGATTTTTACTAAACCAGTGGGTGACCGCCCCACGCTGTGGCTAGAGATCATCCAGAGAATAGGGTGCATGGAGAAGGACGAAAAAGGACAAGAGTACCAGAAGGGAGGTTGTGGCGGCTTTGGAAAAGGGAACTTCTCCCAATTATTCAAGTCAATTGAAGACTATGAAAAGAGTTTGGAGGCTAAGCAAGCTGCAGCCGCCCAGGGCAGCTGA
modifications: SbHPPDm-F383W-02 Nucleotide Sequence
notes: vector DBN11760
Classification and statistics of the grade of pesticide damage: Grade 0 ([1]; topramezone 25 g ai/ha (1×)): 7 | Classification and statistics of the grade of pesticide damage: Grade 1 ([1]; topramezone 25 g ai/ha (1×)): 6 | Classification and statistics of the grade of pesticide damage: Grade 2 ([1]; topramezone 25 g ai/ha (1×)): 3 | Classification and statistics of the grade of pesticide damage: Grade 3 ([1]; topramezone 25 g ai/ha (1×)): 0 | Classification and statistics of the grade of pesticide damage: Grade 0 ([1]; topramezone 100 g ai/ha (4×)): 0 | Classification and statistics of the grade of pesticide damage: Grade 1 ([1]; topramezone 100 g ai/ha (4×)): 0 | Classification and statistics of the grade of pesticide damage: Grade 2 ([1]; topramezone 100 g ai/ha (4×)): 0 | Classification and statistics of the grade of pesticide damage: Grade 3 ([1]; topramezone 100 g ai/ha (4×)): 16 | Scores ([1]; topramezone 25 g ai/ha (1×)): 25 | Scores ([1]; topramezone 100 g ai/ha (4×)): 100 | Resistance evaluation ([1]; topramezone 25 g ai/ha (1×)): moderately | Resistance evaluation ([1]; topramezone 100 g ai/ha (4×)): non-resistant (non-resistant plants (scores 68-100)) | Resistance evaluation ([2]; mesotrione 52.5 g ai/ha): Non-resistant | Scores ([2]; mesotrione 52.5 g ai/ha): 69 | Grade 0 (classification and statistics of the grade of pesticide damage; number of plants) ([2]; mesotrione 52.5 g ai/ha): 0 | Grade 1 (classification and statistics of the grade of pesticide damage; number of plants) ([2]; mesotrione 52.5 g ai/ha): 5 | Grade 2 (classification and statistics of the grade of pesticide damage; number of plants) ([2]; mesotrione 52.5 g ai/ha): 5 | Grade 3 (classification and statistics of the grade of pesticide damage; number of plants) ([2]; mesotrione 52.5 g ai/ha): 6 | Resistance evaluation ([2]; mesotrione 105 g ai/ha): Non-resistant | Scores ([2]; mesotrione 105 g ai/ha): 100 | Grade 0 (classification and statistics of the grade of pesticide damage; number of plants) ([2]; mesotrione 105 g ai/ha): 0 | Grade 1 (classification and statistics of the grade of pesticide damage; number of plants) ([2]; mesotrione 105 g ai/ha): 0 | Grade 2 (classification and statistics of the grade of pesticide damage; number of plants) ([2]; mesotrione 105 g ai/ha): 0 | Grade 3 (classification and statistics of the grade of pesticide damage; number of plants) ([2]; mesotrione 105 g ai/ha): 16 | tolerance to HPPD-inhibitor herbicides (in words): mesotrione (soybean T1 plants [3]): different degrees of tolerance | Resistance evaluation [4, 7]: Poorly | Scores (pesticide damage) [4, 7]: 65 | Classification and statistics of the grade of pesticide damage: Grade 0 (number of plants) [4, 7]: 0 | Classification and statistics of the grade of pesticide damage: Grade 1 (number of plants) [4, 7]: 1 | Classification and statistics of the grade of pesticide damage: Grade 2 (number of plants) [4, 7]: 15 | Classification and statistics of the grade of pesticide damage: Grade 3 (number of plants) [4, 7]: 0 | Resistance evaluation [4, 8]: Non-resistant | Scores (pesticide damage) [4, 8]: 100 | Classification and statistics of the grade of pesticide damage: Grade 0 (number of plants) [4, 8]: 0 | Classification and statistics of the grade of pesticide damage: Grade 1 (number of plants) [4, 8]: 0 | Classification and statistics of the grade of pesticide damage: Grade 2 (number of plants) [4, 8]: 0 | Classification and statistics of the grade of pesticide damage: Grade 3 (number of plants) [4, 8]: 16 | tolerance to HPPD-inhibitor herbicides (in words): topramezone (soybean T1 plants [5]): different degrees of tolerance | tolerance to HPPD-inhibitor herbicides (in words): isoxaflutole (soybean T1 plants [6]): different degrees of tolerance
